To fix the notation:
B1: SA07 (peptide)
peptide: QGLIGDICLPRWGCLWGDSV-NH2
modifications: disulfide 8-14 (inferred)
notes: synthetic; disulfide oxidised; printed ...GDSV here

Bridges are numbered along the chain shown (N, C = ends). Where no end group is shown, it is not given here.

T2 sequence (P07724 25-608 limits assumed): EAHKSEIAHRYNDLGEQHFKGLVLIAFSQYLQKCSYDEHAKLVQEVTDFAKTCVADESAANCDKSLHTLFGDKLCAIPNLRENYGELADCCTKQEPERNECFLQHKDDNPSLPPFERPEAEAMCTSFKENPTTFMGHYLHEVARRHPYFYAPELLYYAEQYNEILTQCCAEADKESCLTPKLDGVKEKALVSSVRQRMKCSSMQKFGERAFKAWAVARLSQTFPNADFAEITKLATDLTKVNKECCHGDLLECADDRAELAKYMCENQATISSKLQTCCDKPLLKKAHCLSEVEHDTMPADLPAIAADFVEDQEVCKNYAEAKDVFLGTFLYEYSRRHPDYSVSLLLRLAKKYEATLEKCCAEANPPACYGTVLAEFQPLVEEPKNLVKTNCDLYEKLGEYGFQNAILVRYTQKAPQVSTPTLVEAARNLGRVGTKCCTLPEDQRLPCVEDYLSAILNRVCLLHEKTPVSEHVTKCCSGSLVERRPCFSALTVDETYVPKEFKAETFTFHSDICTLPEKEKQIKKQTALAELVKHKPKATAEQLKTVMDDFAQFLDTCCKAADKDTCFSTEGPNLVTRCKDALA
T1 sequence (P49065 25-608 limits assumed): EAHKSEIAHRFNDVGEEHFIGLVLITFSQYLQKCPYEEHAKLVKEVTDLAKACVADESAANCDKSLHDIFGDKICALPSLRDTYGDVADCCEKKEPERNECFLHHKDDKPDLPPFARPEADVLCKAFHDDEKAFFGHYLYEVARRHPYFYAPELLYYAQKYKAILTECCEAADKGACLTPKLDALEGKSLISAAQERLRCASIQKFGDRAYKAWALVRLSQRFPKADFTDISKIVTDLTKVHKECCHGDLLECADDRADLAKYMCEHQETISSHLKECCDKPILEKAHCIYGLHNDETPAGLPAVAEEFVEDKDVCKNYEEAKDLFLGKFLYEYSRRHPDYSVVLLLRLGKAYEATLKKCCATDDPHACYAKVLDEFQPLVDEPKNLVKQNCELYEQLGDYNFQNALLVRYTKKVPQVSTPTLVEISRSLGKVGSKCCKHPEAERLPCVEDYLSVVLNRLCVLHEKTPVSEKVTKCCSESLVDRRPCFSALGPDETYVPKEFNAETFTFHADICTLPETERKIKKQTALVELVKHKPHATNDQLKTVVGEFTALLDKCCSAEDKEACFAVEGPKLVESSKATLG

The first assay concerns the target T1, rabbit albumin (rabbit, UniProt P49065 25-608).
T1 construct: bought (Sigma); also called rabbit SA; BuSA
The experiment in a line: SA08b peptide competition ELISA.
The molecule QRLMEDICLPRWGCLWEDDF-NH2 (disulfide 8-14, synthetic; disulfide oxidised) [SA06] showed a half-inhibitory concentration (IC50) of 130 nM.
Same read-out and setting: the value for Ac-RLIEDICLPRWGCLWEDD-NH2 (disulfide 7-13 (inferred), synthetic; disulfide oxidised) [SA21] was 270 nM; that for GEWWEDICLPRWGCLWEEED-NH2 (disulfide 8-14 (inferred), synthetic) [SA15] was 13 nM.

Another assay concerns the target T2, mouse albumin (mouse, UniProt P07724 25-608).
T2 construct: bought (Sigma); also called MSA; MuSA
The experiment in a line: SA08b peptide competition ELISA.
The molecule QRLMEDICLPRWGCLWEDDF-NH2 (disulfide 8-14, synthetic; disulfide oxidised) [SA06] showed an IC50 of 6 nM.
In the case of Ac-RLIEDICLPRWGCLWEDD-NH2 (disulfide 7-13 (inferred), synthetic; disulfide oxidised) [SA21], the IC50 was found to be 7 nM.
On the same count and under the same terms, the value for Ac-QGLIGDICLPRWGCLWGDSVK-NH2 (disulfide 8-14 (inferred), synthetic; disulfide oxidised) [SA08] was 12 nM; that for GEWWEDICLPRWGCLWEEED-NH2 (disulfide 8-14 (inferred), synthetic) [SA15] was 5 nM.

A further assay addresses T1, rabbit albumin. The experiment in a line: SPR (BIAcore), albumin immobilized. An excerpt:
(§1) Binding affinities between SA peptides and album were obtained using a BIAcore 3000 (BIAcore, Inc., Piscataway, N.J.). Albumin was captured in a CM5 chip using amine coupling at approximately 5000 resonance units (RU).
(§2) The signal from an injection passing over an uncoupled cell was subtracted from that of an immobilized cell to generate sensongrams corresponding to the amount of peptide bound as a function of time. The running buffer, PBS containing 0.05% TWEEN-20T, was used for all sample dilutions. BIAcore kinetic evaluation software (v 3.1) was used to determine the dissociation constant (Kd) from the association and dissociation rates, using a one to one binding model.
As for QRLMEDICLPRWGCLWEDDF-NH2 (disulfide 8-14, synthetic; disulfide oxidised) [SA06], the Kd was determined as 143 nM.
Still for that read-out and setting: the value for Ac-RLIEDICLPRWGCLWEDD-NH2 (disulfide 7-13 (inferred), synthetic; disulfide oxidised) [SA21] was 320 nM; that for Ac-QGLIGDICLPRWGCLWGDSVK-NH2 (disulfide 8-14 (inferred), synthetic; disulfide oxidised) [SA08] was 108 nM; that for GEWWEDICLPRWGCLWEEED-NH2 (disulfide 8-14 (inferred), synthetic) [SA15] was 65 nM.

For the next assay, the target named is T3, rat albumin (rat, UniProt P02770 25-608).
T3 construct: bought (Sigma); also called rat SA; RSA
T3 sequence (P02770 25-608 limits assumed): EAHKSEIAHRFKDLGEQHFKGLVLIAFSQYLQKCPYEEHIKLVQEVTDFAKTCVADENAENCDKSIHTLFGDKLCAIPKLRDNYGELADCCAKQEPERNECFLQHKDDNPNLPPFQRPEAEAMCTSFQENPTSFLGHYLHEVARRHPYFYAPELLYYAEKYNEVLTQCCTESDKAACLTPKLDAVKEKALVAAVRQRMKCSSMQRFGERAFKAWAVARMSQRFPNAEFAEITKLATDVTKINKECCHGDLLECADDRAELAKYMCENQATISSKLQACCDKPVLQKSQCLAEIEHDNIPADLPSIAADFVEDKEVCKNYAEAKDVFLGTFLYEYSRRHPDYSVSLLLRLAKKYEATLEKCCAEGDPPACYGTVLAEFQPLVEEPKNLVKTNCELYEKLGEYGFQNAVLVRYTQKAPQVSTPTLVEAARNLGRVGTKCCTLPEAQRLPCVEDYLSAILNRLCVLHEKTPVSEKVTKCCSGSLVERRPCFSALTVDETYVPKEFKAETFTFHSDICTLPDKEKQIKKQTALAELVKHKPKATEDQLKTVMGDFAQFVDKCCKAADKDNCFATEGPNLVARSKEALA
Briefly: SPR (BIAcore), albumin immobilized.
Description: as §1, §2
Molecule QRLMEDICLPRWGCLWEDDF-NH2 (disulfide 8-14, synthetic; disulfide oxidised) [SA06] returned a dissociation constant Kd of 229 nM.
Same read-out and setting: with Ac-QGLIGDICLPRWGCLWGDSVK-NH2 (disulfide 8-14 (inferred), synthetic; disulfide oxidised) [SA08] the figure was 158 nM; with GEWWEDICLPRWGCLWEEED-NH2 (disulfide 8-14 (inferred), synthetic) [SA15], 150 nM.

For another assay, the target named is T4, human albumin (human, UniProt P02768 25-609).
T4 construct: bought (Sigma); also called human SA; HuSA
Briefly: SPR (BIAcore), albumin immobilized.
Description: as §1, §2
Regarding Ac-QGLIGDICLPRWGCLWGDSVK-NH2 (disulfide 8-14 (inferred), synthetic; disulfide oxidised) [SA08], the Kd was determined as 858 nM. This lies in the sub-micromolar range.
The same measure, in the same setting: the value for GEWWEDICLPRWGCLWEEED-NH2 (disulfide 8-14 (inferred), synthetic) [SA15] was 878 nM.

The next assay has as its target T3, rat albumin. Briefly: phage ELISA.
Regarding DLCLRDWGCLW (not fully specified (C-terminus); cysteine pairing not given here) [RC], the binding result is recorded as “binds”.

A further assay addresses T1, rabbit albumin. Briefly: SA08b competition ELISA.
On to Ac-DICLPRWGCLWED-NH2 (disulfide 3-9 (inferred), synthetic) [SA26], for which the IC50 is 3120 nM. That is a single-digit micromolar value.
With Ac-RLIEDICLPRWGCLWE-NH2 (disulfide 7-13 (inferred), synthetic) [SA29], the half-maximal inhibitory concentration (IC50) turned out to be 400 nM.
On the same count and under the same terms, with Ac-IEDICLPRWGCLWED-NH2 (disulfide 5-11 (inferred), synthetic) [SA24] the figure was 1380 nM; with Ac-DICLPRWGCL-NH2 (disulfide 3-9 (inferred), synthetic) [SA34], 28200 nM; with ICLPRWGCLW-NH2 (disulfide 2-8 (inferred), synthetic) [SA18], 125000 nM.
In the case of Ac-RLIEDICLPRWGCLWEDD-NH2 (disulfide 7-13 (inferred), synthetic; disulfide oxidised) [SA21], the IC50 is 270 nM.
Regarding Ac-EDICLPRWGCLWED-NH2 (disulfide 4-10 (inferred), synthetic) [SA25], the half-inhibitory concentration (IC50) is 2730 nM.
On the same count and under the same terms, the value for Ac-RLIEDICLPRWGCLW-NH2 (disulfide 7-13 (inferred), synthetic) [SA31] was 200 nM; that for DICLPRWGCL-NH2 (disulfide 3-9 (inferred), synthetic) [SA19] was 24500 nM; that for Ac-QRLIEDICLPRWGCLWEDDF-NH2 (disulfide 8-14 (inferred), synthetic) [SA20] was 260 nM.
As to DICLPRWGCLW-NH2 (disulfide 3-9 (inferred), synthetic; disulfide oxidised) [SA04], the half-maximal inhibitory concentration (IC50) stood at 8540 nM.
Ac-RLIEDICLPRWGCL-NH2 (disulfide 7-13 (inferred), synthetic) [SA33] returned an IC50 of 4310 nM.
As to Ac-RLIEDICLPRWGCLWED-NH2 (disulfide 7-13 (inferred), synthetic) [SA22], the half-maximal inhibitory concentration (IC50) stood at 430 nM.
Same read-out and setting: the value for Ac-ICLPRWGCLWED-NH2 (disulfide 2-8 (inferred), synthetic) [SA27] was 86700 nM.
The same measure, in the same setting: the value for Ac-IEDICLPRWGCLWE-NH2 (disulfide 5-11 (inferred), synthetic) [SA30] was 1800 nM; that for Ac-LIEDICLPRWGCLWED-NH2 (disulfide 6-12 (inferred), synthetic) [SA23] was 360 nM; that for Ac-EDICLPRWGCLW-NH2 (disulfide 4-10 (inferred), synthetic) [SA32] was 2170 nM.

A further assay deals with T1, rabbit albumin. The experiment in a line: SA08b competition ELISA. This is another data set of the same source.
QRLMEDICLPRWGCLWEDDF-NH2 (disulfide 8-14, synthetic; disulfide oxidised) [SA06] showed an IC50 of 128 nM.

The next assay addresses T3, rat albumin. Briefly: SA08b competition ELISA.
With QRLMEDICLPRWGCLWEDDF-NH2 (disulfide 8-14, synthetic; disulfide oxidised) [SA06], the IC50 was determined as 68 nM.

The target of another assay is T2, mouse albumin. The experiment in a line: SA08b competition ELISA.
With QRLMEDICLPRWGCLWEDDF-NH2 (disulfide 8-14, synthetic; disulfide oxidised) [SA06], the IC50 is 8 nM.

Another assay deals with T1, rabbit albumin. Briefly: SA08b competition ELISA. The source holds these as a separate data set.
For the molecule MEDICLPRWGCLWED-NH2 (disulfide 5-11 (inferred), synthetic; disulfide oxidised) [SA05], the IC50 came to 804 nM.
On the same count and under the same terms, the value for Ac-MEDICLPRWGCLWEDD-NH2 (disulfide 5-11 (inferred), synthetic; disulfide oxidised) [SA11] was 1210 nM; that for QRLMEDICLPRWGCLWEDDF-NH2 (disulfide 8-14, synthetic; disulfide oxidised) [SA06] was 128 nM.
Same read-out and setting: the value for Ac-RLMEDICLPRWGCLWEDD-NH2 (disulfide 7-13 (inferred), synthetic; disulfide oxidised) [SA10] was 86 nM.
Still for that read-out and setting: with Ac-RLMEDICLARWGCLWEDD-NH2 (disulfide 7-13 (inferred), synthetic; disulfide oxidised) [SA13] the figure was 3200 nM.
Molecule Ac-MEDICLPRWGCLWED-NH2 (disulfide 5-11 (inferred), synthetic; disulfide oxidised) [SA12] had an IC50 of 1760 nM. Against the preceding molecule, the IC50 is about 1.8-fold lower.
The same measure, in the same setting: with Ac-QGLIGDICLPRWGCLWGDSVK-NH2 (disulfide 8-14 (inferred), synthetic; disulfide oxidised) [SA08] the figure was 63 nM; with Ac-EDICLPRWGCLWEDD-NH2 (disulfide 4-10 (inferred), synthetic; disulfide oxidised) [SA09], 1690 nM.
The molecule B1 displayed an IC50 of 30 nM. This IC50 is about 56-fold lower than that of the molecule before.
Same read-out and setting: with DICLPRWGCLW-NH2 (disulfide 3-9 (inferred), synthetic; disulfide oxidised) [SA04] the figure was 8540 nM.

For the next assay, the target named is T3, rat albumin. Briefly: SA08b competition ELISA. This is another data set of the same source.
In the case of MEDICLPRWGCLWED-NH2 (disulfide 5-11 (inferred), synthetic; disulfide oxidised) [SA05], the IC50 was 161 nM.
Same read-out and setting: with Ac-MEDICLPRWGCLWEDD-NH2 (disulfide 5-11 (inferred), synthetic; disulfide oxidised) [SA11] the figure was 232 nM.
On the same count and under the same terms, with QRLMEDICLPRWGCLWEDDF-NH2 (disulfide 8-14, synthetic; disulfide oxidised) [SA06] the figure was 68 nM; with Ac-RLMEDICLPRWGCLWEDD-NH2 (disulfide 7-13 (inferred), synthetic; disulfide oxidised) [SA10], 77 nM.
Same read-out and setting: with Ac-RLMEDICLARWGCLWEDD-NH2 (disulfide 7-13 (inferred), synthetic; disulfide oxidised) [SA13] the figure was 2480 nM; with Ac-MEDICLPRWGCLWED-NH2 (disulfide 5-11 (inferred), synthetic; disulfide oxidised) [SA12], 205 nM.
In the case of Ac-QGLIGDICLPRWGCLWGDSVK-NH2 (disulfide 8-14 (inferred), synthetic; disulfide oxidised) [SA08], the IC50 came out at 68 nM.
Same read-out and setting: with Ac-EDICLPRWGCLWEDD-NH2 (disulfide 4-10 (inferred), synthetic; disulfide oxidised) [SA09] the figure was 258 nM.
B1 registered an IC50 of 35 nM.
On to DICLPRWGCLW-NH2 (disulfide 3-9 (inferred), synthetic; disulfide oxidised) [SA04], for which the IC50 stood at 787 nM.

The target of a further assay is T2, mouse albumin. The experiment in a line: SA08b competition ELISA. This is another data set of the same source.
In turn, MEDICLPRWGCLWED-NH2 (disulfide 5-11 (inferred), synthetic; disulfide oxidised) [SA05] displayed a half-inhibitory concentration (IC50) of 6 nM.
On the same count and under the same terms, with Ac-MEDICLPRWGCLWEDD-NH2 (disulfide 5-11 (inferred), synthetic; disulfide oxidised) [SA11] the figure was 17 nM; with QRLMEDICLPRWGCLWEDDF-NH2 (disulfide 8-14, synthetic; disulfide oxidised) [SA06], 8 nM.
The same measure, in the same setting: with Ac-RLMEDICLARWGCLWEDD-NH2 (disulfide 7-13 (inferred), synthetic; disulfide oxidised) [SA13] the figure was 188 nM.
The same measure, in the same setting: the value for Ac-MEDICLPRWGCLWED-NH2 (disulfide 5-11 (inferred), synthetic; disulfide oxidised) [SA12] was 13 nM; that for Ac-QGLIGDICLPRWGCLWGDSVK-NH2 (disulfide 8-14 (inferred), synthetic; disulfide oxidised) [SA08] was 10 nM; that for Ac-EDICLPRWGCLWEDD-NH2 (disulfide 4-10 (inferred), synthetic; disulfide oxidised) [SA09] was 6 nM.
For B1, the 50% inhibitory concentration (IC50) turned out to be 6 nM.
Still for that read-out and setting: the value for DICLPRWGCLW-NH2 (disulfide 3-9 (inferred), synthetic; disulfide oxidised) [SA04] was 40 nM.

The target of the next assay is T1, rabbit albumin. The experiment in a line: SA08b competition ELISA. This is another data set of the same source.
Take Ac-DICLPRWGCLWED-NH2 (disulfide 3-9 (inferred), synthetic) [SA26]: the “fold improvement of IC50 over the core sequence (SA34 and SA19)” value was roughly 8.6 fold.
Same read-out and setting: the value for Ac-RLIEDICLPRWGCL-NH2 (disulfide 7-13 (inferred), synthetic) [SA33] was roughly 6 fold.
Same read-out and setting: with Ac-RLIEDICLPRWGCLWED-NH2 (disulfide 7-13 (inferred), synthetic) [SA22] the figure was 60 fold.

The record behind these values is patent publication US20070202045A1 (published 2007).
